Test results from paper PMC2838536 (Human Molecular Genetics, 2010).

T1: his6-tagged full-length Pam18 (S. cerevisiae, UniProt Q07914 1-168)
T1 sequence: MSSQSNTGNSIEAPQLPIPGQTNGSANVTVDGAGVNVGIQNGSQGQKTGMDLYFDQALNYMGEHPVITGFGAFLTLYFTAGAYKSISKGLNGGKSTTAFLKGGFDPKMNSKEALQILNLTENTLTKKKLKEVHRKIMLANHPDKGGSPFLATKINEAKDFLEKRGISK


Experiments:
[1] = biological target: T1, his6-tagged full-length Pam18; test: pull-down
[2] = biological target: GST-Magmas_(F92G) (in MagmasJ+T) (human); test: pull-down

Binder	binding result [1]	fold reduction in the binding affinity against wild-type Magmas [2] [fold]
full-length GST-Magmas (natural protein) MAKYLAQIIVMGVQVVGRAFARALRQEFAASRAAADARGRAGHRSAAASNLSGLSLQEAQQILNVSKLSPEEVQKNYEHLFKVNDKSVGGSFYLQSKVVRAKERLDEELKIQAQEDREKGQMPHT	binds	–
his6-tagged Pam18J+T (domain or fragment) KSISKGLNGGKSTTAFLKGGFDPKMNSKEALQILNLTENTLTKKKLKEVHRKIMLANHPDKGGSPFLATKINEAKDFLEKRGISK	–	2
